Data published in US20240368233A1 (University of Washington, published 2024).

Key:
DFX = biological target: T1, DFX; assay: negative-stain EM of the heterotrimer; components named in the legend
T1 construct: Bivalent connector
T1 chain: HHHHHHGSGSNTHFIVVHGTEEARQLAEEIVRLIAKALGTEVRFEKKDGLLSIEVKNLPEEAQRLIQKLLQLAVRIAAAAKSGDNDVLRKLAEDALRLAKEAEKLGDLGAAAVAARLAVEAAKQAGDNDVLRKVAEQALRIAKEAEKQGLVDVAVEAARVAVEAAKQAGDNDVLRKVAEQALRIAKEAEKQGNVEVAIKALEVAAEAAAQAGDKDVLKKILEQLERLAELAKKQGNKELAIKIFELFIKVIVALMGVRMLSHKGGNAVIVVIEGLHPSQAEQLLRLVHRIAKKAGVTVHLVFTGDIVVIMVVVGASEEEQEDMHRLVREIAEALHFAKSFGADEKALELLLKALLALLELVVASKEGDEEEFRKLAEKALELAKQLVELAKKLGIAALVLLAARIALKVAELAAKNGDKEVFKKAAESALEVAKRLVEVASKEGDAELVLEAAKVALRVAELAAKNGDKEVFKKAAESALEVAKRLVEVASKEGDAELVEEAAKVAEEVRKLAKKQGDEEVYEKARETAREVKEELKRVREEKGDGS
Description: (§1) SEC peak fractions were concentrated prior to negative stain EM screening. Samples were then immediately diluted 5 to 150 times in TBS buffer (25 mM Tris pH 8.0, 25 mM NaCl) depending on sample concentration. A final volume of 5 μL was applied to negatively glow discharged, carbon-coated 400-mesh copper grids (01844-F, TedPella, Inc.), then washed with Milli-Q™ Water and stained using 0.75% uranyl formate as previously described (53). Air-dried grids were imaged on a FEI Talos L120C TEM (FEI Thermo Scientific, Hillsboro, OR) equipped with a 4K×4K Gatan OneView™ camera at a magnification of 57,000× and pixel size of 2.51. Micrographs were imported into CisTEM software or cryoSPARC™ software and a circular blob picker was used to select particles which were then subjected to 2D classification. Ab initio reconstruction and homogeneous refinement in Cn symmetry were used to generate 3D electron density maps (54, 55).

[1] = biological target: the molecule itself; assay: SEC titration of the protomer alone at several injection concentrations (Superdex 200, normalised A230); self-association
TF10 = biological target: T2, TF10; assay: SEC (A230) of A---, -BCD and ABCD and negative-stain EM; components named in the legend of FIG. 17A, which paragraph 104 ties to FIG. 4A
T2 construct: Trivalent connector
T2 chain: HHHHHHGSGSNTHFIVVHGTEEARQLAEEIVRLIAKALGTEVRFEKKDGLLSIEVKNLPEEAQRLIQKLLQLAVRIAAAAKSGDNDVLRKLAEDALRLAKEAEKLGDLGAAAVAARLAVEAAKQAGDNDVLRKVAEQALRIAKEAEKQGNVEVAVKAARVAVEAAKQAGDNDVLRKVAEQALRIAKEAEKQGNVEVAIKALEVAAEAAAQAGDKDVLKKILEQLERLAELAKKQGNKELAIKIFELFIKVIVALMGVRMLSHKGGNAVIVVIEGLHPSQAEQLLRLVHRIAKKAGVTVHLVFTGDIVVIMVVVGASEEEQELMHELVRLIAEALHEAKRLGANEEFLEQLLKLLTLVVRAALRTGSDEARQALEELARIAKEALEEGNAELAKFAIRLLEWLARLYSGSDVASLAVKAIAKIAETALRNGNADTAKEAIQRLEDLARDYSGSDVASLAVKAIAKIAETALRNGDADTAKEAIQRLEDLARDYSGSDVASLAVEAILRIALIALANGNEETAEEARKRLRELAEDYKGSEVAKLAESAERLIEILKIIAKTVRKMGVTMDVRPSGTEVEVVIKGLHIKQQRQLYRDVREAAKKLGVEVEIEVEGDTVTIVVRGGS
Description: (§2) Complexes and individual components were diluted in 20 mM Tris pH 8.0, 100 mM NaCl. After o/n equilibration of the mixtures at room temperature or 4 degrees C., 500 ul of sample was injected onto a Superdex™ 200 10/300 increase GL (dimers, linear assemblies) or Superose™ 6 increase 10/300 GL (symmetric assemblies) (all columns from GE healthcare) using the absorbance at 230 nm or 473 nm (for GFP tagged components) as read-out. Dimers were mixed at monomer concentrations of 5 μM or higher. Trimer and ABCD tetramer mixtures contained 5 μM of the bivalent connector, and 7.5 μM of each terminal cap (lower absolute concentrations with the same ratios were used for some trimers). ABCA tetramer mixtures contained 5 μM per bivalent connector and 15 μM terminal cap. The hexamer mixture contained 3 μM of components C and D, 3.6 μM of B and E, and 4.4 μM of A and F. The branched assembly shown in FIG. 4A contained 2.8 μM of the trivalent connector and 4 μM of each cap. For the exchange experiment shown in FIG. 5A, the ABC trimer was preincubated at concentrations of 6 μM B and 9 μM each of A and C. C′ was then added to reach a final concentration of 2 μM B, 3 μM each of A and C, and 6 μM C′.
as §1, with “Ab initio reconstruction and homogeneous refinement in Cn symmetry were used to generate 3D electron density maps (54, 55).” left out

DF275A-1 = biological target: T3, DF275A-1; assay: SEC of mixed components; trimer listed in Table 6
T3 construct: Bivalent connector
T3 chain: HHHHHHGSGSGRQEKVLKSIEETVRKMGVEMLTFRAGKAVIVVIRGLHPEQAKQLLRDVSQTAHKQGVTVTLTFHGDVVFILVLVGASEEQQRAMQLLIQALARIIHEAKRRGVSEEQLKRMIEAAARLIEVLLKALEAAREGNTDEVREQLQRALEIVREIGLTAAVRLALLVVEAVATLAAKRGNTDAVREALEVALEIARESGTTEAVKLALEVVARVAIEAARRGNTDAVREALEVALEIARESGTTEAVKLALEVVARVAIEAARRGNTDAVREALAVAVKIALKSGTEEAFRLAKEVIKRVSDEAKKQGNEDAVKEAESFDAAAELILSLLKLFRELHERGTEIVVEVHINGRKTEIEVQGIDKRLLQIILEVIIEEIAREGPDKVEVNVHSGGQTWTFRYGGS
Description: as §2

DFA0 = biological target: T4, DFA0; assay: SEC of mixed components; trimer listed in Table 6
T4 construct: Bivalent connector
T4 chain: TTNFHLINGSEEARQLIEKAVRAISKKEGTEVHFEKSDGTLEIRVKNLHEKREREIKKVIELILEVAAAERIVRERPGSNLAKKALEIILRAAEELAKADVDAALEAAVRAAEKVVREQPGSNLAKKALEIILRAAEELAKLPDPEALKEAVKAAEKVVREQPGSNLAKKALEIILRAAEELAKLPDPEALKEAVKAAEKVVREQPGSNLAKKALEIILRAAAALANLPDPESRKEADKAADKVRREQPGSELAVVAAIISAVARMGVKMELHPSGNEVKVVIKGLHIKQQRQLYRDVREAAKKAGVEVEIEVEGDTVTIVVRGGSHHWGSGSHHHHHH
Description: as §2

101B62 = biological target: T5, 101B62; assay: SEC of mixed components; linear tetramer listed in Table 6, neighbours in the chain
T5 construct: also called LHD101B62
T5 chain: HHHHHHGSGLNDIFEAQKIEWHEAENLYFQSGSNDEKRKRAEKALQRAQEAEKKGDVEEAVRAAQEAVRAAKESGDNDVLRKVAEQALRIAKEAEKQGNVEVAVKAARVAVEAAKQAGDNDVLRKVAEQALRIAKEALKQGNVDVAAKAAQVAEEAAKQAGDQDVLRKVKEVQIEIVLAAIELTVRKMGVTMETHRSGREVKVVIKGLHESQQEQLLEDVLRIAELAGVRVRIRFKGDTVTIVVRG
Description: as §2

LHD274 B62 = biological target: T6, LHD274 B62; assay: SEC binding assay (Superdex 200, normalised A230) of A, B and the mixture AB
T6 construct: also called LHD274 B DHR62 C
T6 single chain, LHD274 chain B fused to DHR62: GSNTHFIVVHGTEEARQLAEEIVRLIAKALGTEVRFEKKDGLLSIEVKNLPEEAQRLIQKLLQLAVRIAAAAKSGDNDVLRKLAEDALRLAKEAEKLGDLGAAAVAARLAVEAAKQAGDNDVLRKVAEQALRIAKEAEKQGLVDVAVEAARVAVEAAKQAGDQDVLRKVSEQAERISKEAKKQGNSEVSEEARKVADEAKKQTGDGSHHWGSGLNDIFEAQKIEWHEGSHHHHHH
Description: as §2

274B53 = biological target: T7, 274B53; assay: as above
T7 construct: also called LHD274B DHR53 stop
T7 chain: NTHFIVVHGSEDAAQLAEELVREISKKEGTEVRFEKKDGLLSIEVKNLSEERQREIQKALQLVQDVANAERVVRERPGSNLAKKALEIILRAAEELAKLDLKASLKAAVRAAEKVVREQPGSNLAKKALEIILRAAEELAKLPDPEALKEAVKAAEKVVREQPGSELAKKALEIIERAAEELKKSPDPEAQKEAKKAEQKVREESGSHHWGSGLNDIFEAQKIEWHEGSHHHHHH
Description: as §2

B1: 317B (designed binder)
chain: GGSDVEWRFTNVSEEEQEKLARFVLQVAQLAGTQVIFTTRPGELRIRVHNLDELLALAIELYAQGLRLGDKHVQHLAKKAIEAILRGDRKLARFLLEAARAMSRATERPGSNLAKKALEEILRLAEELAKDPDPESLKAAVHCAEFVVRYQPGSNLAKKALEIILRAAEELAKLPDPEALKEAVKAAEKVVREQPGSELAKKALEIIERAAEELKKSPDPEAQKEAKKAEQKVREERPGSGGSGSHHWGSGSHHHHHH
notes: also called LHD317 B; LHD317B
- binding result (DFX): binds
- binding result [1]: binds
- binding result (TF10): binds

B2: 206B62-2 (designed binder)
chain: HHHHHHGSGLNDIFEAQKIEWHEAENLYFQSGSNDEKRKRAEKALQRAQEAEKKGDVEEAVRAAQEAVRAAKESGDNDVLRKVAEQALRIAKEAEKQGNVEVAVKAARVAVEAAKQAGDNDVLRKVAEQALRIAKEAEKQGNVPVAVKALLVALNAAVAAGDQDVLRKISEQAERARKLAEKQGDKLLAFVLALISLVAQMGVPMEIHPSGNEVKVVIKGLHKSQQEQLLKLVLKLANKLGVNVHISFRGDTVTIRVRGGS
- binding result (DF275A-1): binds

B3: 101B82 (designed binder)
chain: HHHHHHGSGLNDIFEAQKIEWHEAENLYFQSGSDEEVQEAVERAEELREEAEELIKKARKTGDAELLRKALEALEEAVRAVEEAIKRNPDNDEAVETAVRLARELKKVAEELQERAKKTGDAELLKLALRALEVAVRAVELAIKSNPDNDEAVETAVRLARELAKVAEELIERAKKTGDKELLKLAKRALEVAMRAVSLALKSNPDNEEARRVAAELVLLVIRAAVIEMGVTMEEHRSGNRVKVVIKGLHESQQEQLLEDVLRAAEIAGVRVRIRFKGDTVTIVVEG
- binding result (DFA0): binds

B4: DFB0 (designed binder)
chain: NTHFIVVHGSEDAAQLAEELVREISKKEGTEVRFEKKDGLLSIEVKNLSEERQREIQKALQLVQDVANAERVVRERPGSNLAKKALEIILRAAEELAKLDLKASLKAAVRAAEKVVREQPGSNLAKKALEIILRAAEELAKLPDPEALKEAVKAAEKVVREQPGSNLAKKALEIILRAAEELAKLPDPEALKEAVKAAEKVVREQPGSNLAKKALEIILRAAAALANLPDPESRKEADKAADKVRREQPGSELAVVAAIISAVARMGVKMELHPSGNEVKVVIKGLHIKQQRQLYRDVREAAKKAGVEVEIEVEGDTVTIVVRGGSHHWGSGSHHHHHH
notes: Bivalent connector
- binding result (101B62): binds

B5: DF206 (designed binder)
chain: NTHFIVVHGTEEARQLAEEIVRLIAEALGTEVRFEKKDGLLSIEVKNLPEEAQRLIQKLLQLAVRIAAAAESGDNDQLRELAEDALRLAEEAEKLGDLGAAAVAARLAVEAAKQAGDNDVLREVAEQALEIAKEAEKQGLVDVAVEAARVAVEAAKQAGDNDVLRKVAEQALRIAKEAEKQGNVEVAVKAARVAVEAAKQAGDNDVLRKVAEQALRIAKEAEKQGNVEVAALALVVAVNAAQAAGDQDLLRKIAEQAERLAKLAEKQGRRDVALLASIIALVAKMGVPMEVHPSGNEVKVVIKGLHKSQQEQLLKEVLKAANKLGVNVHISFRGDTVTIRVRGGGSHHWGSGSHHHHHH
notes: Bivalent connector
- binding result (DF275A-1): binds

B6: LHD274 A64 (designed binder)
single chain, LHD274 chain A fused to DHR64: GSTTNFHLINGSEEARQLIQKAVEAISKKEGTEVHFEKSDGTLEIRVKNLHPRQEDLIKKFIEALLLALVAKGELEQAEKEGDAEVALRAVEKVVRVAELLLRLAKEAGSEEALKAALEIAEQAARLAKRVLELAEKQGDAEVALRAVELVVRVAELLLRIAKESGSEEALERALRVAEEAARLAKRVLELAEKQGDAEVARRAVELVKRVAELLERIARESGSEEAKERAERVREEARELQERVKELREREGDGSHHWGSGLNDIFEAQKIEWHEGSHHHHHH
- binding result (LHD274 B62): binds
- binding result (274B53): binds
